The text below walks through data of the nanobody polyreactivity screen of Harvey et al. (2022).

The data set is described as follows: yeast display, Sf9 membrane polyspecificity reagent, FACS + sequencing; frameworks hold sequencing errors. In short, it runs like this:
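Galactose induction of a Saccharomyces cerevisiae BJ5465 synthetic nanobody display library ran 36–48 hours. The cells were then stained for 1 hour at 4 °C with 10% biotinylated, detergent-solubilized Sf9 membrane reagent, pulled down on streptavidin microbeads and FACS-sorted into low and high (top ~1%) gates on expression and reagent-binding fluorescence. Labels for polyreactivity follow the gate of origin.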
With “QVQLVESGGGLVQAGGSLRLSCAASGSTFGSNDLGWYRQAPGQERELVAAITWSGGSTFYADSVKGRFTISRDNAKNTVYLQMNSLKPEDTALYSCAVSTEVNRYHAKYDYRGQGTQVTVSS”, the “polyreactivity (PSR sort gate)” value was “low polyreactivity”.

For “QVQLVESGGGLVQAGGSLRLSCAASGSTFGSYAMGWYRQAPGKERELVAAISRSGTSTYYADSVKGRFTISRDNAKNTVYLQMNSLKPEETAVYYCAAKFVTSGGLEGYWGQGTQVTVSS”, the “polyreactivity (PSR sort gate)” value is “high polyreactivity”. Take “QVQLVESGGGLVQAGGSLRLSCAASGSTFGSYAMGWYRQAPGKERELVADISSRGASTYYADSVKGRFTISRDNAKNTVYLQMNSLKPEDTAVYYCARDVYIWYGYGYFPEYEYWGQGTQVTVSS”: the “polyreactivity (PSR sort gate)” value is listed as “low polyreactivity”. To “QVQLVESGGGLVQAGGSLRLSCAASGSTFGSYTMGWYRQAPGKERELVAAISYSSGRTYYADSVKGRFTISRDNAKNTVYLQMNSLKPEDTAVYYCAAVSRGRGEYDYWGQGTQLTVSS” belongs “high polyreactivity”; to “QVQLVESGGGLVQAGGSLRLSCAASGSTFGTNAMGWYRQAPGKERELVAAISTGGSTYYADSVKGRFTISRDNAKNTVYLQMNSLKPEDNAVYYCAALADYVRRASDYWGQGTQVTVSS”, “low polyreactivity”; to “QVQLVESGGGLVQAGGSLRLSCAASGSTFGTYAMGWNRQATWKERELVAAITYSTGNTYYADSVKGRFTISRDNAKNNVYLQMNSLKPEDTAVYYCALEFGYYYFWMDYWGQGTQVTVSS”, “high polyreactivity”. Consider “QVQLVESGGGLVQAGGSLRLSCAASGSTFGTYAMGWYRKAPGKERELVAAISTGGSTYYADSVKGRFTISRDNAKNTVYLQMNSLKPEDTAVYYCAALADYVRRASEYWGQGTQVTVSS”, for which the “polyreactivity (PSR sort gate)” value was “high polyreactivity”. Take “QVQLVESGGGLVQAGGSLRLSCAASGSTFGTYAMGWYRQATGKERELVAAISRGVSTYYADSVKGRFTISRDKAKNTVYLEMNSLKPEDTAVYYCAADPFWQTVYVYYTYSGTSYYWGQGTQVTVSS”: the “polyreactivity (PSR sort gate)” value is recorded as “low polyreactivity”. The entry for “QVQLVESGGGLVQAGGSLRLSCAASGSTFGVNAMGWYRPAPGKERELVAAITYSGGSTYYADSVKGRFTISRDNAKNTVYLQMNSLKPEDTAVYYCATTWYFVASWYVAIYDYWGQGTQVTVSS” is “low polyreactivity”; for “QVQLVESGGGLVQAGGSLRLSCAASGSTFGVNAMGWYRQAPGKERELVAAIRWSDGSTYYADSVKGRFTISRDNAKNTVYLQMNSLKPEDTAVYYCNTDLTVYFPVEYWGQGTQVTVSS” it is “low polyreactivity”; for “QVQLVESGGGLVQAGGSLRLSCAASGSTFGVNAMGWYRQAPGKERELVAAISSSGSSTYADSVKGRFTISRDYAKNTVYLQMNSLKPEYTGVYYCNKTTLLTVEYDYWGQGPQVTVSS” it is “low polyreactivity”.

As to “QVQLVESGGGLVQAGGSLRLSCAASGSTFGVNAMGWYRQAPGKERELVATISRGTSTNYADSVKGRFTISRDNAKNTVYLQMHSLKPEDTAVYYCAKRVFYPGAYRYYYWGQGTQVTVSS”, the “polyreactivity (PSR sort gate)” value was “high polyreactivity”. To “QVQLVESGGGLVQAGGSLRLSCAASGSTFGVNVMGWYRQAPGKERELVDAISRSGGRTYYADSVKGRFTISRDNAKNTVYLQMNSLKPEDTAVYYCNTRGYDYWGQGTQVTVSS” belongs “high polyreactivity”; to “QVQLVESGGGLVQAGGSLRLSCAASGSTFGVYAMGWYRQAPGKERELVAAISESGGNTYYADSVKGRFTISRDNAKNTVYLQLNSLKPEDPAVYYCNTDVVVVHYIQAYYWGQGTQVTVSS”, “low polyreactivity”. To “QVQLVESGGGLVQAGGSLRLSCAASGSTFGVYAMGWYRQAPGKERELVAAISKRGGSTYYADSVKGRFTISRDNAKNTVYLQMNSLKPEDTAVYYCAAGARGLYDYWGQGTQVTVSS” belongs “high polyreactivity”; to “QVQLVESGGGLVQAGGSLRLSCAASGSTFGVYAMGWYRQAPGKERELVAAISSSTGSTYYADSVKGRFTISRDNAMNSVYLQMNSLKPEDTAVYYCDAAGYGKVLGDYWGQGTLVTVSS”, “low polyreactivity”; to “QVQLVESGGGLVQAGGSLRLSCAASGSTFGVYAMGWYRQAPGKERELVASISSRGRTKYADSVKGSFTISRDNAKNTVYLQMIRLKPEDTAFYYCAARIRYLGVRDNDNYYWGQGTQVTVSS”, “low polyreactivity”.

On to “QVQLVESGGGLVQAGGSLRLSCAASGSTFGWNAMGWYRQAPGKERELVAAISSSGGITYYADSVKGRFTISRDNAKNTVYLQMNSLKPEDSAVYYCAAERDDDWVNYWGQGTQVTVSS”, for which the “polyreactivity (PSR sort gate)” value was “low polyreactivity”. To “QVQLVESGGGLVQAGGSLRLSCAASGSTFGWYAIGWNRQAPGKERELVAAINSDGSTYYADSVKGRFTISRDNAKNNVYLQMNSLKPEDPAVYYCATDDALYGYLYHNYGYWGEGTQVTVSS” belongs “low polyreactivity”; to “QVQLVESGGGLVQAGGSLRLSCAASGSTFGWYAMGGYRQAPGKERELVAAISASGGATYYADSVKGRFTISRDNAKNTVYLQMNSLKPEDTAVYYCAAVRYPNWYDYWGQGTQVTVSS”, “high polyreactivity”.

Take “QVQLVESGGGLVQAGGSLRLSCAASGSTFGWYAMGWYRQAPGKEREFVAAIRGGGSSTYYADSVKGRFTISRDNAKNTVYFQMNSLKPEDTAVYYCAAVTSQLYGNRYYYWGQGTQVTVSS”: the “polyreactivity (PSR sort gate)” value is “high polyreactivity”.

In the case of “QVQLVESGGGLVQAGGSLRLSCAASGSTFGWYAMGWYRQAPGKERELVAAISNSGGSTYYADSVKGRFTISRDNAKNTVYLQMNSLKPEDTAVYYCATYHTTSYYQLVFDYWGQGTQVTVSS”, the “polyreactivity (PSR sort gate)” value is listed as “low polyreactivity”. The entry for “QVQLVESGGGLVQAGGSLRLSCAASGSTFGWYAMGWYRQAPGKERELVASISSGGSTNYADSVKGRFTISRDNAKNTVYLQMNSLKPEDTAVYYCAARGGYWWYRYGYWGQGTQVTVSS” is “high polyreactivity”; for “QVQLVESGGGLVQAGGSLRLSCAASGSTFGWYTMGWYRQAPGKERELVAAMTSRGTRTSYADSVKGRFTISRDNAKNTVYLQMNSLKPEDTAVYYCAARVFRGLGEYYWGQGTQVTVSS” it is “high polyreactivity”. The entry for “QVQLVESGGGLVQAGGSLRLSCAASGSTFGYNAMGWYRQAPGKERELVAAINFRSDRTFYADSVKGRFTISRDNAKNTVYLQMNSLKPEDTAVYYCAAKPTTYYGNSDYWGQGTQVTVSS” is “high polyreactivity”; for “QVQLVESGGGLVQAGGSLRLSCAASGSTFGYNAMGWYRQAPGKERELVAAISYSGGSTSYADSVKGRFTISRDNAKNIVYLQMNSLKPEDTAVYYCARDSYSQYSSQALEGYGYWGQGTQVTVSS” it is “low polyreactivity”; for “QVQLVESGGGLVQAGGSLRLSCAASGSTFGYNAMGWYRQAPGKERELVADITARGGSTYYADSVKGRFTISRANAKNTVYLQMNSLKPEVTAVYYCAARRKRFYYYAGYDYWGQGTQVTVSS” it is “high polyreactivity”. The entry for “QVQLVESGGGLVQAGGSLRLSCAASGSTFGYNAMGWYRQAPGKERELVARITSSGGSTYYADSVKGRFTISRDNAKNTVYLQMNSLKPEDTAVYYCAAGYLSGNYARYGYWGQGTQVTVSS” is “high polyreactivity”; for “QVQLVESGGGLVQAGGSLRLSCAASGSTFGYNAMGWYRQAPGKERELVATITSTGGGTYYADSVKGRFTISRDNAKNTVYLQMNSLKPEDTAVYYCAAVYYSLDYVHGYPPHYDYWGQGTQVTVSS” it is “low polyreactivity”. Take “QVQLVESGGGLVQAGGSLRLSCAASGSTFGYNAMGWYRQATGKERELVARITSSGGSTYYADSVKGRFTISRDNAKNTVYLQMNILKPEDTAVYYCAAGYLSGNYARYGYWGQGTQVTVSS”: the “polyreactivity (PSR sort gate)” value was “high polyreactivity”.
